This is an account of results in US20190033295A1 (MEDICINAL BIOCONVERGENCE RESEARCH CENTER, published 2019).

The target of experiment [1] is T1, HSP70 protein (human, UniProt P0DMV8 1-641, limits assumed).
T1 construct: Untagged HSP70: endogenous in H460 and 293T cells (co-IP, western blot with HSP70 antibody) and the purified protein fixed on the SPR chip; The construct of the purified protein is not described; also called heat shock protein 70; endogenous HSP70
The experiment can be described thus: IP of H460 cell lysate with Hsp70 antibody, western blot. How it is done: H460 cells were treated with […] (EGF (Peprotech)) for 30 minutes, and then lysed with IP buffer (50 mM Tris (pH7.4), 100 mM NaCl, 10% Glycerol, 1 mM EDTA, 0.5% TritonX-100, PBS) at 4° C. for 30 minutes. […] Actin (Sigma) means loading control, and WCL means whole cell lysate.

Another experiment has as its target T2, GFP-HSP70 (human, UniProt P0DMV8 1-641).
T2 construct: Overexpressed in 293T or H460 cells; order of the parts as in the printed name; also called GFP-HSP70 full; not shown: GFP
The experiment can be described thus: confocal microscopy of 293T cells overexpressing both. The method, then:
After EGF treatment, the cells were washed 3 times with cold PBS, and were fixed with cold methanol for 10 minutes. After fixation, the cells were washed 3 times with cold PBS, and nuclei were stained with DAPI (Invitrogen) solution. After staining, each fluorescence was observed using confocal microscopy.

For experiment [2], the target named is T1, HSP70 protein. As to the kind of experiment: strep-tag column IP of 293T lysate overexpressing Strep-AIMP2-DX2, western blot. How it is done: After the cells were lysed in the same manner as described above, IP was performed using a Strep-tag column (GE Helathcare).
A general note: A western blot detects proteins with antibodies after separation by electrophoresis.

For a further experiment, the target named is T3, HSP90B1 (UniProt P14625 22-803).
T3 construct: Identified by mass spectrometry of tryptic peptides
The experiment can be described thus: strep-tag column pull-down from 293T lysate, LC-mass spectrometry. The method, then: (§1) Separated proteins were degraded to their peptide levels by in-gel digestion using trypsin (Hyclone), and these peptides were analyzed by LC-mass spectrometry (Thermo) (FIG. 1A).
(§2) Cell lysis was performed by incubating at 4° C. for 30 min with an appropriate amount of lysis buffer (50 mM Tris(pH7.4), 100 mM NaCl, 10% Glycerol, 1 mM EDTA, 0.5% TritonX-100, PBS). And, lysed cell lysate was centrifuged at 13,200 rpm for 15 minutes. After […] the supernatant from the cell lysate, the supernatant was passed through a strep-tag column (thermo). After passing the supernatant, the proteins bound to the column were eluted by using elution buffer, and then the collected proteins were separated by SDS-PAGE.

A further experiment concerns the target T4, HSPA1L (UniProt P34931 1-641).
T4 construct: Identified by mass spectrometry of tryptic peptides
The experiment is described as above. How it is done:
as §1, §2

The next experiment addresses T5, HSPA5 (UniProt P11021 19-654).
T5 construct: Identified by mass spectrometry of tryptic peptides
Described as above. The method, then:
as §1, §2

Another experiment addresses T6, HSPA9 (UniProt P38646 47-679).
T6 construct: Identified by mass spectrometry of tryptic peptides
Described as above. The method, then:
as §1, §2

Another experiment has as its target T7, HSPA2 (UniProt P54652 1-639).
T7 construct: Identified by mass spectrometry of tryptic peptides
The experiment is described as above. The method, then:
as §1, §2

T1 sequence (P0DMV8 whole entry): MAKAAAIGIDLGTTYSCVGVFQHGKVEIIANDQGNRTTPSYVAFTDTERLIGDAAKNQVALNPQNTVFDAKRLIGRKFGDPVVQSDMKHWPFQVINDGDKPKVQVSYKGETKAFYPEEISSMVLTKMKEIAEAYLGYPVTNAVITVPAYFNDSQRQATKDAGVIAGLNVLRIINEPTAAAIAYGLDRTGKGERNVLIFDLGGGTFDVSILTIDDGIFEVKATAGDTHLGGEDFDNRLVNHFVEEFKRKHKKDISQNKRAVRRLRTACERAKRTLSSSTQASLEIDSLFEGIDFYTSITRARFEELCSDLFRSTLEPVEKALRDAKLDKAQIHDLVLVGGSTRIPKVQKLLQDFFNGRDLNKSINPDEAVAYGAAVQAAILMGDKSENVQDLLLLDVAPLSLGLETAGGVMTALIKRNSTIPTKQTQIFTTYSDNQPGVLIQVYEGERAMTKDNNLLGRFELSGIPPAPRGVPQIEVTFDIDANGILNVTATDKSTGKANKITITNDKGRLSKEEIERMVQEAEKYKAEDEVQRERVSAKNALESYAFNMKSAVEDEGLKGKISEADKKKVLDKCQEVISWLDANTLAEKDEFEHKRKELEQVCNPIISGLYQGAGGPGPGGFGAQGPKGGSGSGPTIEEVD
T5 sequence (P11021 19-654 limits assumed): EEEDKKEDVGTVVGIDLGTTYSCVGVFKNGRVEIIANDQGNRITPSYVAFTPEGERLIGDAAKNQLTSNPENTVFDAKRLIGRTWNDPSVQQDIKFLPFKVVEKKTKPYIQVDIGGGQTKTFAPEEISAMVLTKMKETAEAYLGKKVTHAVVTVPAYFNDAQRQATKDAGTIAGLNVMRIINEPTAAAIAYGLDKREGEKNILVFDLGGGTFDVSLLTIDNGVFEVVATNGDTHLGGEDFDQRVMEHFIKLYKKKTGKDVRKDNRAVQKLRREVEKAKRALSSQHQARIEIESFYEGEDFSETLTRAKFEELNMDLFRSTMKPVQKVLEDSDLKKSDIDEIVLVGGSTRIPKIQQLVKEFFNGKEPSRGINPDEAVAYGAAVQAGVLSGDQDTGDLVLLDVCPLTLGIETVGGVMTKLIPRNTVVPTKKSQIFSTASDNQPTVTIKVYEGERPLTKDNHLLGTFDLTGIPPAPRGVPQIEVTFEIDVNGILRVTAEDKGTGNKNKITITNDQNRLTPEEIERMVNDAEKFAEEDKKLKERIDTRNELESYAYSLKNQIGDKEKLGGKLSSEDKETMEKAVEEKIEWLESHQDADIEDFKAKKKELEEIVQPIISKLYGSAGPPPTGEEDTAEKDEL
T2 sequence (P0DMV8 whole entry): as the sequence (P0DMV8 whole entry) above
T6 sequence (P38646 47-679 limits assumed): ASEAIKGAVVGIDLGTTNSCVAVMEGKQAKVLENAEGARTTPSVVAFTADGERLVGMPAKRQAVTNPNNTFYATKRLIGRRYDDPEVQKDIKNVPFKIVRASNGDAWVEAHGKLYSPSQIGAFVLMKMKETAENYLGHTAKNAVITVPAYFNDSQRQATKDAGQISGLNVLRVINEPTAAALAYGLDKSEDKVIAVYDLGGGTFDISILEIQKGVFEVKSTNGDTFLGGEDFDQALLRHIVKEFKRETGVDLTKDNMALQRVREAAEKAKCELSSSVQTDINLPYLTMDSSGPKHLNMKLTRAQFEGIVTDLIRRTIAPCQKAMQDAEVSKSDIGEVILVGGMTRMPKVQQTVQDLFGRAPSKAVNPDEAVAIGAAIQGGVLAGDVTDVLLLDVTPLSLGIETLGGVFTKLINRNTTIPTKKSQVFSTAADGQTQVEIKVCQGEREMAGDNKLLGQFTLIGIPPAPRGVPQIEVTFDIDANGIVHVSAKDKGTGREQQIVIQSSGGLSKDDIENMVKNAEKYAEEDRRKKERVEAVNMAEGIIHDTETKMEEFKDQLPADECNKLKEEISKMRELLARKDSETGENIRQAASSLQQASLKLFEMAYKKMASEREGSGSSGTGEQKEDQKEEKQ
T3 sequence (P14625 22-803 limits assumed): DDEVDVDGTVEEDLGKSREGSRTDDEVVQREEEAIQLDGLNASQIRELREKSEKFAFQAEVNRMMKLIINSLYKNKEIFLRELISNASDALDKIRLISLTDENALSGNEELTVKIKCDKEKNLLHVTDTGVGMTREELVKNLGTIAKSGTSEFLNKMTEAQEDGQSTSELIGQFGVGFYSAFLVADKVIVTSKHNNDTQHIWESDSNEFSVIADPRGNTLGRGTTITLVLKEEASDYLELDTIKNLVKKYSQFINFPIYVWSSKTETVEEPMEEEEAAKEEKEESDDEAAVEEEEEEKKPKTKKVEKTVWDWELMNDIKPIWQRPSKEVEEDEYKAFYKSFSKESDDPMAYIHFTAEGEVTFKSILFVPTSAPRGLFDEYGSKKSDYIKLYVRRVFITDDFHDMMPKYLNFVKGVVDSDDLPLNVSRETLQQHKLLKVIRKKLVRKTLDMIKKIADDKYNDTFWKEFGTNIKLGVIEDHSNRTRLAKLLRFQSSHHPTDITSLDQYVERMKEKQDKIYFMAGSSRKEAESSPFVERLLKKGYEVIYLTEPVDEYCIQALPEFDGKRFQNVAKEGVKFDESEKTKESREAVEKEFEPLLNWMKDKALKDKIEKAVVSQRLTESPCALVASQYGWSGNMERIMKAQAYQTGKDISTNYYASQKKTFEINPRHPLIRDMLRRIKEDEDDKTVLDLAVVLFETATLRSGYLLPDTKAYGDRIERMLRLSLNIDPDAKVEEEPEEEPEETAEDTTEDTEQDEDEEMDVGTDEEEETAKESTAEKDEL
T7 sequence (P54652 whole entry): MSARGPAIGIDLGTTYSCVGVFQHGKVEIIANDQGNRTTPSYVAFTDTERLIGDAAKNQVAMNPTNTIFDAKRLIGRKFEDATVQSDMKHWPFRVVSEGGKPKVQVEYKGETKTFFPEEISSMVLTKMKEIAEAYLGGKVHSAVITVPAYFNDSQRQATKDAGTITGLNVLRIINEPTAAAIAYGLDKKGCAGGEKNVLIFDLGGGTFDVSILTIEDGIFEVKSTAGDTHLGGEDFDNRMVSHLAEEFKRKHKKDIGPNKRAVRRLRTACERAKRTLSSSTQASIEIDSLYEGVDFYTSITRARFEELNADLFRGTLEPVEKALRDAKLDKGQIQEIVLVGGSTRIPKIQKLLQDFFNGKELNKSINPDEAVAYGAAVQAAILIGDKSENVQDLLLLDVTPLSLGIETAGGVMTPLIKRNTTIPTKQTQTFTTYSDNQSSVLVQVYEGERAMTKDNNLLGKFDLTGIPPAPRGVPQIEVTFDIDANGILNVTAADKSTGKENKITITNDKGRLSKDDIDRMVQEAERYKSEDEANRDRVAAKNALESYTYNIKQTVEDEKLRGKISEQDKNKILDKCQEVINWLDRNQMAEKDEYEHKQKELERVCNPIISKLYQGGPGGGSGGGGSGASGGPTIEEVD
T4 sequence (P34931 whole entry): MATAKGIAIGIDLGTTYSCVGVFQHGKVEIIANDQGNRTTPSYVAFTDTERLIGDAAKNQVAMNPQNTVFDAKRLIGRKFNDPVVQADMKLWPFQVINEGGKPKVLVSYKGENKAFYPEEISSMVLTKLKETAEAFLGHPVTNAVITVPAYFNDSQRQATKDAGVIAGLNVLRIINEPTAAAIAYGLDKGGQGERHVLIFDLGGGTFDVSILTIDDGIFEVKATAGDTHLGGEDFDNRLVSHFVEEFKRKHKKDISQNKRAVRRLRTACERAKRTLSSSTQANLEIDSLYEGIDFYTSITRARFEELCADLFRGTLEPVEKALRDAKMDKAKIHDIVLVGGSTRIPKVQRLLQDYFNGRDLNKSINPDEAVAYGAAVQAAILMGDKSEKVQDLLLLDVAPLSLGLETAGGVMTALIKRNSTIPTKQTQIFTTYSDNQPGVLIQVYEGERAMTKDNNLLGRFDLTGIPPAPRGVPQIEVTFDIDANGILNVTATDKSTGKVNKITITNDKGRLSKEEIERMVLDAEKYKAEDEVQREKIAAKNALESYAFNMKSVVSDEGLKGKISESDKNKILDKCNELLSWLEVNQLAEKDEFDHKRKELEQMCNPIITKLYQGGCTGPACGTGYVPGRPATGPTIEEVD

B1: AIMP2-DX2 protein (other)
chain: MPMYQVKPYHGGGAPLRVELPTCMYRLPNVHGRSYGPAPGAGHVQDYGALKDIVINANPASPPLSLLVLHRLLCEHFRVLSTVHTHSSVKSVPENLLKCFGEQNKKQPRQDYQLGFTLIWKNVPKTQMKFSIQTMCPIEGEGNIARFLFSLFGQKHNAVNATLIDSWVDIAIFQLKEGSSKEKAAVFRSMNSALGKSPWLAGNELTVADVVLWSVLQQIGGCSVTVPANVQRWMRSCENLAPFNTALKLLK
notes: Untagged AIMP2-DX2: endogenous in H460 cells (IP with Hsp70 antibody) and the purified protein flowed in SPR
As to B1, the binding result with HSP70 protein [1] is listed as “binds”.

B2: RFP-AIMP2-DX2 (other)
chain: B1 chain
notes: Overexpressed in 293T cells; order of the parts as in the printed name; not shown: RFP
Regarding B2, in the experiment with GFP-HSP70, the binding result is “binds”.

B3: Strep-AIMP2-DX2 (other)
chain: B1 chain
notes: Overexpressed in 293T cells; The tag is put first as in the printed name; also called Strep-DX2; exogenous AIMP2-DX2; not shown: Strep tag from the pEXPR-IBA5 vector
B3: the binding result with HSP70 protein [2] is on record as “binds”; with HSP90B1, “no binding”.

B4: AIMP2 (other, UniProt Q13155 1-320, looked up)
chain: MPMYQVKPYHGGGAPLRVELPTCMYRLPNVHGRSYGPAPGAGHVQEESNLSLQALESRQDDILKRLYELKAAVDGLSKMIQTPDADLDVTNIIQADEPTTLTTNALDLNSVLGKDYGALKDIVINANPASPPLSLLVLHRLLCEHFRVLSTVHTHSSVKSVPENLLKCFGEQNKKQPRQDYQLGFTLIWKNVPKTQMKFSIQTMCPIEGEGNIARFLFSLFGQKHNAVNATLIDSWVDIAIFQLKEGSSKEKAAVFRSMNSALGKSPWLAGNELTVADVVLWSVLQQIGGCSVTVPANVQRWMRSCENLAPFNTALKLLK
notes: Endogenous protein in H460 cell lysate; also called p38/JTV-1
Take B4: the binding result with HSP70 protein [1] was “no binding”.

B5: strep-AIMP2 (other, UniProt Q13155 1-320, looked up)
chain: B4 chain
notes: Overexpressed in 293T cells; not shown: Strep tag from the pEXPR-IBA5 vector
Turning to B5, the binding result in the experiment with HSPA1L, with HSPA5, in the experiment with HSPA9 and with HSPA2 was “no binding” each time.
